Data reported in patent US20240301071A1 (Alector, published 2024).

T1: cynoSIRPA XPO15313153.1 (cynomolgus, UniProt A0A2K5VYQ9)
T1 construct: not tied one by one in the text; also called cynomolgus SIRPA; not shown: Fc or His tag
T1 sequence: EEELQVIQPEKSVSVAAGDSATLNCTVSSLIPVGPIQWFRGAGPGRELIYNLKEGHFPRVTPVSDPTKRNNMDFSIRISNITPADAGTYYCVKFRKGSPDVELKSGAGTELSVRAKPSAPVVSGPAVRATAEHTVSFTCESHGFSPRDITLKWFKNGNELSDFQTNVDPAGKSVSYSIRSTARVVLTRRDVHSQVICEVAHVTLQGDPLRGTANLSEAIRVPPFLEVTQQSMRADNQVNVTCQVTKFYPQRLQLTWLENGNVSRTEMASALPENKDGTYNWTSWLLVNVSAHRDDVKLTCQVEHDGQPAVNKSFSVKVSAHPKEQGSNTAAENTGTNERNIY

T2: rat SIRPA (rat, UniProt P97710 32-373, limits assumed)
T2 sequence (looked up): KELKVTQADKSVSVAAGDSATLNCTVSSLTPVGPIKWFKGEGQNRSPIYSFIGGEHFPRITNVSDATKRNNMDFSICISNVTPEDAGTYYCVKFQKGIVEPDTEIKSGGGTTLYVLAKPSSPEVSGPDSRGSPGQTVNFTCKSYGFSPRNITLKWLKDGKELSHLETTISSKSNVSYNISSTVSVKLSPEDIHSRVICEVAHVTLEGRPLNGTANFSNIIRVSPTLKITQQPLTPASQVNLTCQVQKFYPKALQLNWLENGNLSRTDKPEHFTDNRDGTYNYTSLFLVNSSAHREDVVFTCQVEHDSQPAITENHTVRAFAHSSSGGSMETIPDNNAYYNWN

T3: Fc-tagged marmoset SIRPA (accession no. JAB51896) (marmoset, UniProt U3F8F0 31-373)
T3 sequence: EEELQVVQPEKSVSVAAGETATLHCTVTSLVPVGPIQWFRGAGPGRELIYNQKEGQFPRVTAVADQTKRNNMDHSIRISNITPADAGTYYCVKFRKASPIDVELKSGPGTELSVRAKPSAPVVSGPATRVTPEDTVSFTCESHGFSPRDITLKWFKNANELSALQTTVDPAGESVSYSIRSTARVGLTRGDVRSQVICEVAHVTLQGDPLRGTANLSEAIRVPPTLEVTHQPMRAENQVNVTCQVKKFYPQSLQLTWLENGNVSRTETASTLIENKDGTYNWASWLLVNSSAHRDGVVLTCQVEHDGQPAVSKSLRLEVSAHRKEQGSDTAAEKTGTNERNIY

T4: Fc-tagged dog SIRPA (accession no. XP005634938) (dog, UniProt A0A8I3P880)
T4 sequence: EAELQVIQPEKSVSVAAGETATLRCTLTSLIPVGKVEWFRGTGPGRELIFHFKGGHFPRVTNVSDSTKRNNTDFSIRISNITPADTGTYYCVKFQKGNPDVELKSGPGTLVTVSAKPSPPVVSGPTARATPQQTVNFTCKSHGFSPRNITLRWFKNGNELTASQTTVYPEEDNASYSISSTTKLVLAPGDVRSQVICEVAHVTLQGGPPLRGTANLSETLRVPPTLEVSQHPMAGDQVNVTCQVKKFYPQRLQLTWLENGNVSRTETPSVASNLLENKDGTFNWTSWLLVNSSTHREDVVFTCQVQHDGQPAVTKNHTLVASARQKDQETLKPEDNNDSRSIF

B1: 3F9-14 (antibody)
heavy: not shown
light: DIQLTQSPSSLSASVGDRVTITCRASKSVSSGGYSYMHWYQQKPGKAPKLLIYLASNLESGVPSRFSGSGSGTDFTLTISSVQPEDFATYYCQHNRELPVTFGQGTKLEIKRTVAAPSVFIFPPSDEQLKSGTASVVCLLNNFYPREAKVQWKVDNALQSGNSQESVTEQDSKDSTYSLSSTLTLSKADYEKHKVYACEVTHQGLSSPVTKSFNRGEC
notes: also called mAb 3F9-14; hu3F9-14
B2: 3F9-22 (antibody)
heavy: not shown
light: DIQLTQSPSSLSASVGDRVTITCRASKSVSSGGYSYMHWYQQKPGKAPKLLIYLASNLESGVPSRFSGSGSGTDFTLTISSVQPEDFATYYCQHNRELPVTFGQGTKLEIKRTVAAPSVFIFPPSDEQLKSGTASVVCLLNNFYPREAKVQWKVDNALQSGNSQESVTEQDSKDSTYSLSSTLTLSKADYEKHKVYACEVTHQGLSSPVTKSFNRGEC
notes: also called mAb 3F9-22; hu3F9-22

Assays:
[1] = molecular target: T5, histidine-tagged human SIRPA v1 (Novoprotein) (human, UniProt P78324 31-370, limits assumed); experiment: BLI (Octet), antibody on anti-human IgG Fc sensor, His-huSIRPA in solution, single-curve 1:1 fit
T5 construct: bought, soluble; also called huSIRPA; soluble huSIRPA; not shown: histidine tag
Procedure: (§1) Initial characterization of affinity matured anti-SIRPA antibodies disclosed herein comprised acquiring antigen affinity measurements using bio-layer interferometry (BLI) on a Pall ForteBio Octet RED96 instrument. Immobilized anti-mouse IgG Fc or anti-human IgG Fc antibodies captured murine anti-SIRPA 3F79 antibody and humanized anti-SIRPA 3F79 antibody on biosensors, respectively. Single cycle kinetics were performed with 25 nM huSIRPA [which variant?] or 50 nM huSIRPB 1 flowed over captured antibody 3F79 to record traces. Data analysis was performed using ForteBio Data Analysis Software, version 9.0. Standard kinetic buffer (PBS, 0.100 BSA, 0.02% Tween-20, pH 7.2) was used for the assay and for preparing reagents. […] 50 nM of histidine-tagged human SIRPA vi or human SIRPB1 (Novoprotein, Summit, NJ, USA) were then bound to the captured anti-SIRPA antibody coated surface (200 s association time, 900 s dissociation time). […] Single-curve kinetic analysis was performed using a 1:1 interaction model to extract association and dissociation rate constants (ka and kd, respectively) for each antibody. Affinity constants (KD) were calculated from the ratio kd/ka.

[2] = molecular target: T6, human SIRPA on human macrophages (primary monocyte-derived macrophages; U937 line) (human, UniProt P78324 31-504); experiment: cell-based or functional assay
[3] = molecular target: T7, human SIRPA v1 on BWZ cells (BWZ-huSIRPA) (human, UniProt P78324 31-504); experiment: flow cytometry titration on BWZ-huSIRPA cells, 4 C
T7 construct: also called BWZ cells overexpressing human SIRPA; BWZ-huSIRPA v1 cells
Procedure: After addition of fluorescently labeled secondary antibody and brief washing steps, MFI values as a function of titrated antibody concentration was recorded via FACS analysis. […] Receptor bound antibodies were detected by staining cells with anti-human IgG PE secondary antibody. Curves were fit using nonlinear regression analysis with Graphpad Prism 6 software.

huSIRPA v.2 NP542970.1 = molecular target: T8, huSIRPA v.2 NP542970.1 (human, UniProt P78324 31-373, limits assumed); experiment: ELISA, plate coated with tagged SIRPA at 1 ug/mL
T8 construct: see m48; also called human SIRPA v2; human SIRPA-Fc (v2)
Procedure: (§2) In an ELISA assay, 96-well Immulon HBX plates were coated with His- or Fc-tagged SIRPA of a given species, as indicated, at 1 μg/mL in PBS overnight at 4C. Plates were blocked in 5% (w/v) bovine serum albumin in PBS for 1 hour, after which they were washed 3 times with PBS/0.05% Tween 20 (PBS/T). Anti-SIRPA antibodies were added to the plate in a dilution series and were incubated at room temperature for 2 hours, after which the unbound antibody was removed by washing with PBS/T. Horseradish peroxidase-conjugated anti-mouse IgG or anti-human kappa light chain (Jackson Immunoresearch) was then added to the wells and incubated for 30 minutes. Unbound antibody was removed by washing with PBS/T, after which bound antibody was detected using tetramethylbenzidine (TMB). The reaction was stopped with 2N H₂SO₄, after which the plates were read at A450.

cynoSIRPA XPO15313153.1 = molecular target: T1, cynoSIRPA XPO15313153.1; experiment: ELISA, plate coated with tagged SIRPA at 1 ug/mL
Procedure: as §2

rat SIRPA = molecular target: T2, rat SIRPA; experiment: ELISA, plate coated with tagged SIRPA at 1 ug/mL
Procedure: as §2

[4] = molecular target: T5, histidine-tagged human SIRPA v1 …; experiment: BLI (Octet)
Procedure: as §1

[5] = molecular target: T6, human SIRPA on human macrophages …; experiment: cell-based or functional assay; remark: listed apart in the source
[6] = molecular target: T3, Fc-tagged marmoset SIRPA (accession no. …); experiment: ELISA, plate coated with Fc-tagged SIRPA
Procedure: as §2

[7] = molecular target: T4, Fc-tagged dog SIRPA (accession no. …); experiment: ELISA, plate coated with Fc-tagged SIRPA
Procedure: as §2

T5 sequence (P78324 31-370 limits assumed): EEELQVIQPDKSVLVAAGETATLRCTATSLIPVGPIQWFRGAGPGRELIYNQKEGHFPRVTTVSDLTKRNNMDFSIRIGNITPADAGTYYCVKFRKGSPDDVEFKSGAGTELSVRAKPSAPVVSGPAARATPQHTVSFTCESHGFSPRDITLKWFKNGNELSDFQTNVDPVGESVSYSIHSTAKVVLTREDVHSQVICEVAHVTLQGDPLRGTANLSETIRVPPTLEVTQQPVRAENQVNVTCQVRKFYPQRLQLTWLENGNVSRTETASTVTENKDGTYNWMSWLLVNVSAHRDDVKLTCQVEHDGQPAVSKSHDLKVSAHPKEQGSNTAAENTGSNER
T6 sequence (P78324 31-370): as the sequence (P78324 31-370 limits assumed) above
T8 sequence (P78324 31-373 limits assumed): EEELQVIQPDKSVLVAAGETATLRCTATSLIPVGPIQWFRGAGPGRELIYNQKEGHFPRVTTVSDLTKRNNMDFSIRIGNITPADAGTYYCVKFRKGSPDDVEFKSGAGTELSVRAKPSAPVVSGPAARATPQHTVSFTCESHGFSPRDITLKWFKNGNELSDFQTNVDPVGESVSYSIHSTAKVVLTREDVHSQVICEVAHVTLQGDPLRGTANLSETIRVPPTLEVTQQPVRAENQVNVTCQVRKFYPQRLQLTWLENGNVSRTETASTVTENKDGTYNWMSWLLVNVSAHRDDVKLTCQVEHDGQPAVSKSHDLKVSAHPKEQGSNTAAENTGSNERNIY
T7 sequence (P78324 31-504): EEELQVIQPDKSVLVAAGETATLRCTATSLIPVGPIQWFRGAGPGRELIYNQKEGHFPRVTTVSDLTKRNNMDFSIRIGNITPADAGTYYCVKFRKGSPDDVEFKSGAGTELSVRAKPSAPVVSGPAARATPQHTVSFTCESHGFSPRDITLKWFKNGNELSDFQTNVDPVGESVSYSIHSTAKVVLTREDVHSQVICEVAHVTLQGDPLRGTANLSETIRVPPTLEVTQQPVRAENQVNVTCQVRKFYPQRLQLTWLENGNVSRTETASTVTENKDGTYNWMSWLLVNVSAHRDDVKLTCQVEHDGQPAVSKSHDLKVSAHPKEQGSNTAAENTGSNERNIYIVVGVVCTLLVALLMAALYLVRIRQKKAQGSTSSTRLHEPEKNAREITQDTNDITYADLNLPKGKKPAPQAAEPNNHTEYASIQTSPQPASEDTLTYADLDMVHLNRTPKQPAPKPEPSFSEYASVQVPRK

| Kd [1] [nM] | koff [1] [s⁻¹] | kon [1] [M⁻¹ s⁻¹] | Phagocytosis, fold increase over baseline activity [2] [fold] | SIRPA IC50 (nM), downregulation on human primary macrophages [2] [nM] | SIRPA Max % DR, human primary macrophages [2] [%] | EC50 [3] [nM] | EC50 (huSIRPA v.2 NP542970.1) [nM] | EC50 (cynoSIRPA XPO15313153.1) [nM] | binding result (rat SIRPA) | fold increase in affinity relative to parental h3F9 [4] [fold] | SIRPA IC50 (nM), downregulation on U937 cells [5] [nM] | SIRPA Max % DR, U937 cells [5] [%] | EC50 [6] [nM] | EC50 [7] [nM] | Binder |
| --- | --- | --- | --- | --- | --- | --- | --- | --- | --- | --- | --- | --- | --- | --- | --- |
| 0.618 | 0.000102 | 165000 | 1.56 | 0.0372 | 89 | 0.42 | 0.08 | 0.879 | no binding | ~10 | 1.17 | 69 | 1.2 | 0.64 | B1 |
| 0.646 | 0.000113 | 174000 | 1.68 | 0.0542 | 91 | 0.49 | 0.082 | 0.107 | no binding | ~10 | 0.187 | 76 | 4.3 | 0.83 | B2 |
